# Positions count from the first letter of the chain named. In names and notes the source's numbering stands.
# B1: IL6R-PD097/IL6R-L (antibody, human IgG1)
# heavy: QVQLQESGPGLVKPSETLSLTCAVSGHSISHDHAWSWVRQPPGEGLEWIGFISYSGITNYNPSLQGRVTISRDNSKNTLYLQMNSLRAEDTAVYYCARSLARTTAMDYWGEGTLVTVSSASTKGPSVFPLAPSSKSTSGGTAALGCLVKDYFPEPVTVSWNSGALTSGVHTFPAVLQSSGLYSLSSVVTVPSSSLGTQTYICNVNHKPSNTKVDKKVEPKSCDKTHTCPPCPAPELLGGDDVFLFPPKPKDTLYISRTPEVTCVVVDVSHEDPEVKFNWYVDGVEVHNAKTKPREEQYNSTYRVVSVLTVLHQDWLNGKEYKCKVSNKALPAPIEKTISKAKGQPREPQVYTLPPSRDELTKNQVSLTCLVKGFYPSDIAVEWESNGQPENNYKTTPPVLDSDGSFFLYSKLTVDKSRWQQGNVFSCSVMHEALHYHYTQKSLSLSP
# light: DIQMTQSPSSLSASVGDRVTITCRASQDISSYLNWYQQKPGKAPKLLIYYTSRLHSGVPSRFSGSGSGTDFTFTISSLQPEDIATYYCQQGNTLPYTFGQGTKVEIK
# notes: Alteration introduced into IL6R-F11; also called P238D/S239D
# B2: IL6R-B3/IL6R-L (antibody, human IgG1)
# heavy: not shown
# light: B1 light
# notes: IgG1; IL6R-G1d with K439E (EU); also called parent polypeptide; copies: 2 + 2
# B3: IL6R-BP118/IL6R-L (antibody, human IgG1)
# heavy: B1 heavy with D241S, Y254M, K328S, Y436N, K441E
# light: B1 light
# notes: IgG1; Fc variant of IL6R-B3; copies: 2 + 2
# B4: IL6R-G1d/IL6R-L (antibody, human IgG1)
# heavy: not shown
# light: B1 light
# notes: IgG1 (G1d constant region) antibody to human IL-6 receptor; also called IgG1 (IL6R-G1d); copies: 2 + 2
# B5: IL6R-BP102/IL6R-L (antibody, human IgG1)
# heavy: B1 heavy with D241S, Y254M, S269Q, Y436N, K441E
# light: B1 light
# notes: as for B3
# B6: IL6R-BP100/IL6R-L (antibody, human IgG1)
# heavy: B1 heavy with D241S, Y254M, S269A, Y436N, K441E
# light: B1 light
# notes: as for B3
# B7: IL6R-2B171/IL6R-L (antibody, human IgG1)
# heavy: B1 heavy with D241S, Y254M, V325L, Y436N, K441E
# light: B1 light
# notes: as for B3
# B8: IL6R-2B172/IL6R-L (antibody, human IgG1)
# heavy: B1 heavy with D241S, Y254M, V325M, Y436N, K441E
# light: B1 light
# notes: as for B3
# B9: IL6R-BP103/IL6R-L (antibody, human IgG1)
# heavy: B1 heavy with D241S, Y254M, S269V, Y436N, K441E
# light: B1 light
# notes: as for B3
# B10: IL6R-BP119/IL6R-L (antibody, human IgG1)
# heavy: B1 heavy with D241S, Y254M, K328M, Y436N, K441E
# light: B1 light
# notes: as for B3
# B11: IL6R-BF648/IL6R-L (antibody, human IgG1)
# heavy: not shown
# light: B1 light
# notes: IgG1; Fc variant of IL6R-B3; control (= 100) of the relative values; copies: 2 + 2
# B12: IL6R-BP116/IL6R-L (antibody, human IgG1)
# heavy: B1 heavy with D241S, Y254M, K328T, Y436N, K441E
# light: B1 light
# notes: as for B3
# Target: T1, human FcγRIIa type R (human, UniProt P12318 36-217)
# T1 construct: also called FcγRIIaR; FcγRIIa(R)
# T1 chain: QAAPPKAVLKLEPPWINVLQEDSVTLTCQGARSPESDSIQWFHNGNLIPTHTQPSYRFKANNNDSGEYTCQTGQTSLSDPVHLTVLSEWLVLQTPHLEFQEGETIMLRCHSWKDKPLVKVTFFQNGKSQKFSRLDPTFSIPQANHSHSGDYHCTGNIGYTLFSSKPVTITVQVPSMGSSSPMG
# Experiment: SPR (Biacore), binding amount relative to IL6R-F652/IL6R-L = 100
row,Binder,relative binding activity
1,B1,844

# Target: T2, human FcγRIIb (human, UniProt P31994 43-217, limits assumed)
# T2 construct: also called FcγIIB
# T2 sequence: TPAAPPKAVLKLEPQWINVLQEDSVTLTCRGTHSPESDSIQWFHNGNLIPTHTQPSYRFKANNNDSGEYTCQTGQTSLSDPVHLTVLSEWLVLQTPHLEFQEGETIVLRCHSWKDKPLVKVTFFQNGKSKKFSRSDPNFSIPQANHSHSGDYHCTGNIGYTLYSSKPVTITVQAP
# Experiment: as above
row,Binder,relative binding activity
1,B1,139

# Target: T3, human FcγRIa (human, UniProt P12314 16-292, limits assumed)
# T3 construct: also called CD64
# Experiment: SPR (Biacore), antibody captured, FcγR as analyte
# T3 sequence (P12314 16-292 limits assumed): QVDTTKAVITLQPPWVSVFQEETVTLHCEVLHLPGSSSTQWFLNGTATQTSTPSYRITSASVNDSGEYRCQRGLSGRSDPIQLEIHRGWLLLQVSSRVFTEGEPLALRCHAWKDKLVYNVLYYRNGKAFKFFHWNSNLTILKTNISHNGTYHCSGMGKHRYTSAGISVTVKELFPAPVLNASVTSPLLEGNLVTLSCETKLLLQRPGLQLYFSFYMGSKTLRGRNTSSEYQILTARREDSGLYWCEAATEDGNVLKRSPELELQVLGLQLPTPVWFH
row,Binder,Kd
1,B1,4.9 nM

# Target: T1, human FcγRIIa type R
# Experiment: SPR (Biacore), antibody captured, FcγR as analyte
row,Binder,Kd
1,B1,3500 nM

# Target: T2, human FcγRIIb
# Experiment: SPR (Biacore), antibody captured, FcγR as analyte
row,Binder,Kd
1,B1,1400 nM

# Target: T2, human FcγRIIb
# Experiment: SPR (Biacore); ratio against parent IL6R-F11/IL6R-L
row,Binder,KD(IIb) of parent polypeptide/KD(IIb) of altered polypeptide
1,B1,5

# Target: T2, human FcγRIIb
# Experiment: SPR (Biacore); KD for FcγRIIaR divided by KD for FcγRIIb of the same antibody
row,Binder,KD(IIaR)/KD(IIb)
1,B1,2.6

# Target: T4, FcγRIIb (human, UniProt P31994 43-217, limits assumed)
# T4 construct: also called FcgRIIb; FcγIIB
# T4 sequence: T2 sequence
# Experiment: SPR (Biacore); KD for FcγRIIaH divided by KD for FcγRIIb of the same antibody
# From the text: Furthermore, KD(IIaR)/KD(IIb) and KD(IIaH)/KD(IIb) in the table respectively represent the value obtained by dividing the KD value of each variant for FcγRIIaR by the KD value of each variant for FcγRIIb, and the value obtained by dividing the KD value of each variant for FcγRIIaH by the KD value of each variant for FcγRIIb.
row,Binder,KD(IIaH)/KD(IIb)
1,B2,0.2
2,B3,40
3,B4,0.3
4,B5,67.6
5,B6,42.6
6,B7,31.8
7,B8,27.3
8,B9,71.5
9,B10,39.5
10,B11,33.9
11,B12,48.2

# Target: T5, FcγRIIIa type V (human, UniProt P08637 17-208, limits assumed)
# T5 construct: also called FcγRIIIaV; FcgRIIIaV
# Experiment: SPR (Biacore), bound amount, IL6R-BF648/IL6R-L = 100
# Method: (§1) According to the following method, relative binding activities were calculated for the results of analyzing interactions with the respective FcγRs.
# T5 sequence (P08637 other isoform, or with tags, fused parts or gaps limits assumed): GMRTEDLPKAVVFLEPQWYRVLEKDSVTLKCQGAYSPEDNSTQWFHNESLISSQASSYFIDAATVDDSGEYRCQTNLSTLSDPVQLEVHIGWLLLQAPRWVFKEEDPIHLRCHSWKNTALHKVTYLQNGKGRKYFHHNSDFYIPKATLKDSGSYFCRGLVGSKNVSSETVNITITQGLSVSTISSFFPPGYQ
row,Binder,relative binding activity
1,B2,3260 % of control
2,B4,3350 % of control
3,B11,100 % of control

# Target: T4, FcγRIIb
# Experiment: as above
# Method: as §1
row,Binder,relative binding activity
1,B2,58 % of control
2,B4,62 % of control
3,B11,100 % of control

# Target: T6, FcγRIIa type H (human, UniProt P12318 36-217)
# T6 construct: also called FcγRIIaH; FcγRIIH
# T6 sequence: T1 chain with R133H
# Experiment: as above
# Method: as §1
row,Binder,relative binding activity
1,B2,1600 % of control
2,B4,1670 % of control
3,B11,100 % of control

# Target: T7, FcγRIa (human, UniProt P12314 16-292, limits assumed)
# T7 construct: also called FcgRIa; CD64
# Experiment: as above
# Method: as §1
# T7 sequence (P12314 16-292 limits assumed): as the sequence (P12314 16-292 limits assumed) above
row,Binder,relative binding activity
1,B2,145 % of control
2,B4,140 % of control
3,B11,100 % of control

# Target: T4, FcγRIIb
# Experiment: SPR (Biacore); KD for FcγRIIaR divided by KD for FcγRIIb of the same antibody
row,Binder,KD(IIaR)/KD(IIb)
1,B2,0.3
2,B3,13.2
3,B4,0.4
4,B5,9.4
5,B6,7.3
6,B7,15
7,B8,8
8,B9,9
9,B10,8.7
10,B11,13
11,B12,13.3

# Target: T4, FcγRIIb
# Experiment: SPR (Biacore), KD of IL6R-B3/IL6R-L divided by KD of the variant
# From the text: Furthermore, KD(IIaR)/KD(IIb) and KD(IIaH)/KD(IIb) in the table respectively represent the value obtained by dividing the KD value of each variant for FcγRIIaR by the KD value of each variant for FcγRIIb, and the value obtained by dividing the KD value of each variant for FcγRIIaH by the KD value of each variant for FcγRIIb. KD(IIb) of the parent polypeptide/KD(IIb) of the altered polypeptide refers to the value obtained by dividing the KD value of the parent polypeptide for FcγRIIb by the KD value of each variant for FcγRIIb.
row,Binder,KD(IIb) of the parent polypeptide/KD(IIb) of altered polypeptide
1,B2,1 fold
2,B3,2.7 fold
3,B4,1.2 fold
4,B5,3.4 fold
5,B6,2.9 fold
6,B7,2.9 fold
7,B8,4 fold
8,B9,2.5 fold
9,B10,2.7 fold
10,B11,2.6 fold
11,B12,2.8 fold

# Target: T2, human FcγRIIb
# Experiment: SPR (Biacore); KD for FcγRIIaH divided by KD for FcγRIIb of the same antibody
row,Binder,KD(IIaH)/KD(IIb)
1,B1,14

# Target: T5, FcγRIIIa type V
# Experiment: SPR (Biacore), FcγR over captured antibody
row,Binder,Kd
1,B2,330 nM
2,B3,56000 nM
3,B4,350 nM
4,B5,82000 nM
5,B6,59000 nM
6,B7,57000 nM
7,B8,48000 nM
8,B9,110000 nM
9,B10,56000 nM
10,B11,71000 nM
11,B12,72000 nM

# Target: T4, FcγRIIb
# Experiment: SPR (Biacore), FcγR over captured antibody
row,Binder,Kd
1,B2,3100 nM
2,B3,1200 nM
3,B4,2600 nM
4,B5,900 nM
5,B6,1100 nM
6,B7,1100 nM
7,B8,770 nM
8,B9,1200 nM
9,B10,1100 nM
10,B11,1200 nM
11,B12,1100 nM

# Target: T8, FcγRIIa type R (human, UniProt P12318 36-217)
# T8 construct: also called FcγRIIaR; FcgRIIaR
# T8 chain: T1 chain
# Experiment: SPR (Biacore), FcγR over captured antibody
row,Binder,Kd
1,B2,1100 nM
2,B3,15000 nM
3,B4,1000 nM
4,B5,8400 nM
5,B6,7800 nM
6,B7,16000 nM
7,B8,6100 nM
8,B9,11000 nM
9,B10,9900 nM
10,B11,15000 nM
11,B12,15000 nM

# Target: T6, FcγRIIa type H
# Experiment: SPR (Biacore), FcγR over captured antibody
row,Binder,Kd
1,B2,770 nM
2,B3,46000 nM
3,B4,670 nM
4,B5,61000 nM
5,B6,46000 nM
6,B7,34000 nM
7,B8,21000 nM
8,B9,88000 nM
9,B10,45000 nM
10,B11,40000 nM
11,B12,54000 nM

# Target: T7, FcγRIa
# Experiment: SPR (Biacore), FcγR over captured antibody
row,Binder,Kd
1,B2,0.42 nM
2,B3,12 nM
3,B4,0.32 nM
4,B5,8.2 nM
5,B6,1.1 nM
6,B7,9.1 nM
7,B8,3 nM
8,B9,35 nM
9,B10,7 nM
10,B11,11 nM
11,B12,2.6 nM

# Source: patent US20200199241A1 (Chugai, published 2020)
